Drawing on patent EP4676945A2, this text covers fold increase of cell adhesion to fibrin against the control-CAR construct for 1 molecule.

The target in this assay is fibrin. In words: cell adhesion assay: HEK293 cells transfected with the CAR, 30 minutes on fibrin-coated plates, washed with PBS, adhered cells counted by Hoechst stain; reference control-CAR.

B1: fibrin-specific FIB2-CAR (PMC 1946, FIB2scfvCAR), expressed on transfected/transduced HEK293 cells (receptor)
chain: DIQLTQSPSSLSASVGDRVTITCRASQNIGVNLNWYQQRPGKGPKLLVSSTFSLQSGVPSRFSASGAGTNFTLTISSLQPEDYVTYYCQQSYSSPFTFGPGTKVDIKGGGGSGGGGSGGGGSEVQLVESGGGAVQPGRSLRLSCAASGVSFSNIGMHWVRQAPGKGLEWVALISSDGRHTHYADSVKGRFTISRDNSENTLYLQINGLRADDTAVYYCAKGLDTRARYMGKFYTFDYWGQGTLVTVSSASAIEVMYPPPYLDNEKSNGTIIHVKGKHLCPSPLFPGPSKPFWVLVVVGGVLACYSLLVTVAFIIFWVKRGRKKLLYIFKQPFMRPVQTTQEEDGCSCRFPEEEEGGCELRVKFSRSADAPAYQQGQNQLYNELNLGRREEYDVLDKRRGRDPEMGGKPRRKNPQEGLYNELQKDKMAEAYSEIGMKGERRRGKGHDGLYQGLSTATKDTYDALHMQALPPR
In turn, B1 came in with a fold increase of cell adhesion to fibrin against the control-CAR construct of 9.8 fold.
